Results reported in patent US20200239597A1, “AN ANTI-APOPTOTIC FUNCTION OF PKM2 AND INTRACELLULARLY EXPRESSED SCFV ANTIBODIES” (La Jolla Institute for Allergy and Immunology, priority 2017, published 2020).

Experiments:
[1] = target: T1, PKM2 (K422R) (Homo sapiens, UniProt P14618, K422R); assay: Pyruvate kinase assay, PKM2 (K422R); assay type: biochemical
T1 construct: His; made in house; host or cells: Escherichia coli BL21(DE3) (stated generally for WT and mutant PKM2)
Protocol: Activity was measured by Kinase-Glo® Plus Luminescent Kinase Assay kit (promega), using ADP and PEP as substrates), with PKM2 at 50 nM. Shown are values with the basal activity of PKM2 alone subtracted out.
Pyruvate kinase activity was measured by using Kinase-Glo® Plus Luminescent Kinase Assay kit (Promega). 50-100 nM of purified WT or mutant PKM2 was added in 100 μl assay buffer containing 50 mM Tris pH7.5, 100 mM KCl, 10 mM MgCl2, 200 μM PEP, 200 μM ADP, and 3% DMSO. After a 15-min incubation, Kinase-Glo Plus™ reagent (Promega Corporation, Madison, Wis., USA) was added, according to the manufacturer's instructions. In some cases, 0-40 μM fructose 1,6-bisphosphate (FBP) and 0-150 nM scFv 5 were added.

[2] = test system: 293T cells; assay: siRNA silencing of PKM2, rescue from BimS killing; assay type: cell-based, human; conditions: 30 nM PKM2-specific siRNA
Protocol: 5×10^5 cells were incubated per well for 12 h, then cells were either mock-transfected, transfected with 30 nM PKM2-specific siRNA (si M2), or transfected with NF-kB p50-specific siRNA (si p50). After a further 36-h incubation, samples of the same siRNAs were added along with 4 μg of BimS cDNA in fresh medium. Viable cells were counted after another 48-h incubation.
Untreated or IB5-infected 293T cells (5×10^5 per well) were seeded into 6-well plates (Falcon) and transfected with 30 nM siRNA. Lipofectamine™ 2000 (Invitrogen, Carlsbad, Calif., USA) was used for transient transfection according to the manufacturer's protocol. After a 30-h incubation, fresh medium containing 30 nM siRNA and 4 μg/ml BimS expression plasmid was added. Cell viability assay was assayed after a further 36-h incubation. The PKM2-siRNA and control siRNA were purchased from Dharmacon (SiGENOME SMART™ pool hPKM2, Si156, and ONTARGETplus™ non-targeting siRNA #2) (Goldberg and Sharp, 2012).

[3] = test system: MDA-MB231-LM2; assay: Clonogenic rescue from BimS-induced death, MDA-MB231-LM2; assay type: cell-based; conditions: lung metastatic derivative MDA-MB231-LM2
Protocol: Control or IB5-expressing cells were transfected with BimS cDNA. The plates were fixed and stained with crystal violet after 12 days and the total areas of colonies were measured. Mean, SD and P values were calculated from 3 individual plates.

[4] = target: Bax (Homo sapiens, UniProt Q07812); assay: In vitro Bax/cBid membrane permeabilization in liposomes or Xenopus egg mitochondrial outer membrane vesicles; assay type: biochemical; conditions: recombinant scFv 5 added together with PKM2; not shown
Sequence of Bax (Q07812 whole entry, species assumed): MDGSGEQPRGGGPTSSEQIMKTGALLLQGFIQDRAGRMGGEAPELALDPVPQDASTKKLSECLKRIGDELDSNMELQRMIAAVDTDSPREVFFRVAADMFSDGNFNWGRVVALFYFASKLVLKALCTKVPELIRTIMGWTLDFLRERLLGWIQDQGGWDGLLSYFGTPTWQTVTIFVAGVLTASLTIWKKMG
Description: Because no cytoprotective effect was seen when PKM2 was stimulated with allosteric activator TEPP-46 alone, or when PKM2 was replaced with the constitutively active PKIM1 (FIG. 3), the present inventors conclude that increased pyruvate kinase activity per se was insufficient for the cell survival effect induced by IB5. To test whether IB5:PIKM2 complexes could affect pro-apoptotic Bcl-2 family proteins directly, the present inventors used their own previously well-validated in vitro systems that recapitulate Bcl-2 family protein function in membranes. Here, recombinant Bax and cleaved Bid (cBid) proteins are incubated with protein-free liposomes or with isolated Xenopus egg mitochondrial outer membrane vesicles. Bax then becomes inserted into the membranes and forms large pores that recapitulate MOMP as it occurs within cells (Gillies et al., 2015; Kuwana et al., 2002; Kuwana et al., 2016; Schafer et al., 2009). The present inventors observed no effect of adding recombinant scFv 5 and PKIVI2 to these systems (not shown). Thus, the inventors saw no evidence that PKM2 acts directly on the process of Bax/Bak-mediated MOMP.

[5] = test system: Bcl-2 family proteins; assay: Immunoblots of Bcl-2 family proteins; assay type: cell-based, human; conditions: alone or in combination; TEPP-46 27 μM
Protocol: Levels of several Bcl-2 family proteins were unchanged following IB5 expression or incubation with TEPP-46, or both. Cell lysates from 293T cells infected with and without IB5 and incubated with and without TEPP-46 (27 μM) were separated on SDS-12% polyacrylamide gels. Bcl-2 family proteins were detected by immunoblotting. The bands were quantified using ImageJ and normalized to the control cell lysate on the leftmost lane.
293T cells were washed with PBS and lysed with PBS containing 1% NP-40. Protein concentration was determined using Pierce™ BCA reagent (ThermoFisher; 23221, 23224). 35 μg protein was loaded in each lane of 12% SDS-PAGE gels. Proteins were transferred to nitrocellulose membrane and immunoblotted with the following primary antibodies: anti-Bax antibody (Santa Cruz N20), anti-Bak antibody (Cell Signaling 3814), anti-Bid antibody (R&D Systems AF860), anti-Bim antibody (Sigma B7929), anti-Puma antibody (Cell Signaling 4976), anti-Bcl-2 antibody (Abcam 32124), anti-Bcl-xL antibody (Cell Signaling 2764) and anti-Mcl-1 (Santa Cruz S19) at 1:1000 dilution. The secondary anti-rabbit and mouse antibodies, conjugated with HRP, were obtained from Santa Cruz and were used at 1:2000 dilution. The luminescence signal was detected using ECL reagent (ThermoFisher 32106).

[6] = test system: Mfn1, Mfn2; assay: Immunoblot of Mfn1 and Mfn2 protein levels in reconstituted MEFs; assay type: cell-based, mouse
[7] = test system: 293T cells; assay: Protection from death induced by transient expression of tBid; assay type: cell-based, human; conditions: surviving cells counted after 72 h
Protocol: FIG. 2B is a non-limiting graph representation of a transfection assay to assess the effect of IB5 in cells transfected with pro-apoptotic proteins BimS and tBid encoding cDNA. […] 293T cells were transfected treated with […] tBid or BimS cDNA. Surviving cells were counted after 72 h.

[8] = test system: endogenous PKM2, Bim EL and L isoforms; assay: Expression of endogenous PKM2 and Bim isoforms in 293T cells; assay type: cell-based, human

T1 sequence (P14618 whole entry K422R): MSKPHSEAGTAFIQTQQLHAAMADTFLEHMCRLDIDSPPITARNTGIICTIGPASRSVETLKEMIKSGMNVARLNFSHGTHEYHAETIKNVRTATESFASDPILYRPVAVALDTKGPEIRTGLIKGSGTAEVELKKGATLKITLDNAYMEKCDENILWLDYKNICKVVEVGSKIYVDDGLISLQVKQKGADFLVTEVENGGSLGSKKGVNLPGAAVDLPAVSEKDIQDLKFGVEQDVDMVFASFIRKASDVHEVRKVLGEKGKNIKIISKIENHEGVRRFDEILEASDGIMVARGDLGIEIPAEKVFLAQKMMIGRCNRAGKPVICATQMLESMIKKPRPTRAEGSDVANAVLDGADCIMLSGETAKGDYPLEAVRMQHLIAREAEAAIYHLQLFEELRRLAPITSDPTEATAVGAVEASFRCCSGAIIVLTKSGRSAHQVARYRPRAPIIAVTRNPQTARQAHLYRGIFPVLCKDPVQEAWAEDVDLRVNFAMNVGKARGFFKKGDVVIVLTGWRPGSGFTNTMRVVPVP

B1: IB5: intracellularly expressed single-chain antibody (scFv) specific for PKM2, SEQ ID NO: 2; also made as monovalent recombinant scFv in E. coli (protein)
scFv: MAQVQLVETGPGLVKPSETLSLRCTVSGGSFDNYYWNWIRQPPGKGLEYIGYVFPSTGATNYNPSLGSRVTISLDTSKNQFSLTLTSVTTADTAIYYCVRSGHDLWTGSTWFDPWGQWTTVTVSSGGGGSGGGGSGGGGSEIVLTQSPGTLSLSPGERATLSCRASQSVSSSYLAWYQQKPGQAPRLLIYGASSRATGIPDRFSGSGSGTDFTLTISRLEPEDIAVYYCQQRSNWPRTFGQGTKVEIKRGLGGLASVDYKDDDDK
modifications: artificial intrabody clone 5
notes: also made as monovalent recombinant scFv in E. coli
glycolytic activity of PKM2 (K422R) [1]: stimulated the glycolytic activity of PKM2 (K422R) in a concentration-dependent manner
activity of PKM2 (K422R) compared with WT PKM2 ([1]; high concentrations of scFv 5): at least equal to that of WT PKM2
ability to rescue cells from BimS killing after PKM2 silencing [2]: substantial reduction
rescue from BimS-induced cell death [3]: failed to rescue
effect on Bax-mediated membrane pore formation (MOMP) in vitro [4]: no effect
levels of Bax, Bak, Bid, Bim, Puma, Bcl-2, Bcl-xL and Mcl-1 [5]: failed to change the mitochondrial levels
levels of Mfn1 ([6]; cells expressing the K422R mutant): upregulated Mfn1 even further
Mfn2 levels ([6]; reconstituted MEFs): left Mfn2 levels unchanged
levels of Mfn1 ([6]; reconstituted MEFs): substantially increased
protection from death induced by transient expression of tBid [7]: protected from death
expression of endogenous Bim EL and L isoforms [8]: no effect
expression of endogenous PKM2 [8]: no effect
